Experiment: soluble on expression in E. coli; label from the status in PepcDB or PDB records

Sequence	soluble on expression in E. coli
AASQSTPWGIKAIYNNSNLTSTSGGAGINIAVLDTGVNTNHPDLSNNVEQCKDFTVGTNFTDNSCTDRQGHGTHVAGSALANGGTGSGVYGVAPEADLWAYKVLGDDGSGYADDIAEAIRHAGDQATALNTKVVINMSLGSSGESSLITNAVDYAYDKGVLIIAAAGNSGPKPGSIGYPGALVNAVAVAALENTIQNGTYRVADFSSRGHKRTAGDYVIQKGDVEISAPGAAVYSTWFDGGYATISGTSMASPHAAGLAAKIWAQSPAASNVDVRGELQTRASVNDILSGNSAGSGDDIASGFGFAKVQ	soluble
GSTPHLVNLNEDPLMSECLLYHIKDGVTRVGQVDMDIKLTGQFIREQHCLFRSIPQPDGEVVVTLEPCEGAETYVNGKLVTEPLVLKSGNRIVMGKNHVFRFNH	soluble
MAISDSYLKSCLGRERDKVEEKADRDGLWVRISKKGAVTFFYRFRFLGKQDKMTIGSYPEFGLKAAREEVTKWAAILARGENPRIRQSLDKAKINSQYTFEELFREWHAMVCVQKETSDQILRSFELHVFPKLGKYPAHQLTLHNWLTVLDRLAQGYTEITRRVISNGRQCYSWAVKRQLLEVNPLSEMSGRDFGIQKKMGERTLDRKEIAIVWRAIEDSRLIERNKILYKLSLIWACRVGELRQAEVSHFDFEEGVWTVPWENHKTGRKSKKPIIRPIIPEMLPLIQRAIELAPGRFVFSKYADKPMSEGFHMSISSNLVKFMLKAYNEQVPHFTIHDLRRTARTNFSELTEPHIAEMMLGHKLPGVWSVYDKYTYIEEMREAYSKWWARLMSIIEPDVLEFTPRQTG	not soluble
MNKKSSSMVNMPAPREPINQKIDTNNALVLNHNAIYEQRLAEITQSNTCDKAIVTVNPYGTAPLSLYLGVWMDEAAALEINVVDSEATTEEVRYQYDVHPGANLIPVCGMVSAVNNQITLRLASQIVGQYTVMTDALPPTDSANVSLGFPIISVSCPAQQASLMEEGLYFSTYFDRYNLAFDHNGIVRWYVSQEIPSYNFVRMDNGHFLATSQGINHCLNMYEFDIMGRVYTVYLLDNEFHHSILPIENNLAIAPSEYSNGRPDGYSTGKDGVSIINLSTGLEVAYYDMLYVMDYSRSPRPSGSAPGQDVSMDDWLHINQSYINEPNNLLICSGRHQSAIFGVNVDSGELRFIMANHEDWSDEFKQYLLTPVDDDGVPLYDLTSPGGIDAADKNFWTWGQHNIVEIPNDEPGILEFMVFDNGNYRSREDAKSLLPLDNFSRVVQFKINLNTMTVTRPYEYGKTEVGNRGYSSFVSAKHLLTNGHLVIHFGATTVDEFEHTITAQPGSSDLVDPDEGQQALGRLVLQEINKETKEVLFEAMVTSGYFKNEETNGTNYRYDISAFRVYKMPLFALEHHHHHH	soluble
MGSDKIHHHHHHMDFVAVAVHTEYRCNQGWETRAECHWFVSTIRAIMTATQSISLVGGEGDELLMQRYASGDIQAFDTLYRRHKGGLYRYFLRQIGDSQLAEDLYQETWGRVIKAAPAYEISAKFTTWLYRIAHNLLIDHVRAVKPLNEADTLDEEGMALTDSMTPVRSHEHDLKVQALKHCVGLLPQVQKEAFLLSSEMGFTALMISEIASVSLEATKSRIRYAYQSLKTCVAKRLGEDSDER	not soluble
MRDVLEVLEFPRVRALLAERAKTPLGRELALALAPLPREEAEKRHELTGEALSYPYALPEAGTLREAYGRALAGARLSGPELLKAAKALEEAMALKEELLPLKNALSQVAEGIGDHTPFLERVRKALDEEGAVKDEASPRLAQIRRELRPLRQQILDRLYALMDRHREAFQDRFVTLRRERYCVPVRAGMAQKVPGILLDESESGATLFIEPFSVVKLNNRLQALRLKEEEEVNRILRDLSERLAKDEGVPKTLEALGLLDLVQAQAALARDLGLSRPAFGERYELYRAFHPLIPDAVRNSFALDEKNRILLISGPNMGGKTALLKTLGLAVLMAQSGLFVAAEKALLAWPDRVYADIGDEQSLQENLSTFAGHLRRLREMLEEATSHSLVLIDELGSGTDPEEGAALSQAILEALLERGVKGMVTTHLSPLKAFAQGREGIQNASMRFDLEALRPTYELVLGVPGRSYALAIARRLALPEEVLKRAEALLPEGGRLEALLERLEAERLALEAERERLRRELSQVERLRKALAEREARFEEERAERLKALEEEVRAELLKVEAELKALKEKARTEGKRDALRELMALRERYAKKAPPPPPPPGLAPGVLVEVPSLGKRGRVVELRGEEVLVQVGPLKMSLKPQEVKPLPEAEPGKPLLAKPRREVKEVDLRGLTVAEALLEVDQALEEARALGLSTLRLLHGKGTGALRQAIREALRRDKRVESFADAPPGEGGHGVTVVALRP	soluble
MAHHHHHHMQYVERLFSAYGHVADVKIVFEGSVQFAEVMYNAVDDADSAIAALHHHYCASRNTPLVVLYHVRSPCISEYGRKVGREYAQAAALGRDPSYIPLEGFDENYPRTDVPPPPSDREIFEGARWNDSSGPAGEGRLHSY	not soluble
MGSDKIHHHHHHMKLNLRSLEAFRETMLSGSATAAAGRMGLTQPAVSRLIAQLEQEVGFELFYRERGRLSPTPEALIIYDEIDLAFGGLERVDALARDIAAFNTGLLKIVAPPSLSESVLSTILPRFMARFPKVRIAIESRSTATARAMVANRTVDCGFVKLPLDRSDISTVTLSTSETVCVLPDTHPLTAHEVLTPELLRGEPLVLLGAGTWTRRQIDDAFRERGVRPDVRVETHTVGSACALAAGGLGVAIVNALLADNFARPGVAIRVFRPQILHEYAFMTSALAPMNRLAAAFLEEAQTFFREQAR	not soluble
MKVYIVEHAIGSFAYDEQGKLIDFVLSSKDLGKVVDSLLDNEKGIPLPTTIELIQKIKPEEVVVENEAEIPNLQQLGVKASYEIHNLGSKIFRESLPKIAIETKFASSENDLYSFLYEVSFEYTRRKLRTAASKRDLLAIQAIRAIDDIDKTINLFSERLREWYSIHFPELNKLVEDHELYASIVSKFGHRDEITNTGLDEIGVNKDLSTKILDASKKSIGADITDVDIRSIKMLSDTILELFRIRSELTDYVESVMKEVAPNVTALVGPTLGARLLSLAGSLEDLAKMPASTIQVLGAEKALFRALRKGGKPPKHGVIFQYPAIHTSPRWQRGKIARALAAKLAIAARIDAFSGRFIGDKLNEELKKRIEEIKTKYAQPPPRKPQEQKRKEEERKGKKGGREKRKGRR	soluble
SKEIDISCVKIEQVIGAGEFGEVCSGHLKLPGKREIFVAIKTLKSGYTEKQRRDFLSEASIMGQFDHPNVIHLEGVVTKSTPVMIITEFMENGSLDSFLRQNDGQFTVIQLVGMLRGIAAGMKYLADMNYVHRALAARNILVNSNLVCKVSDFGLSRFLEDDTSDPTYTSALGGKIPIRWTAPEAIQYRKFTSASDVWSYGIVMWEVMSYGERPYWDMTNQDVINAIEQDYRLPPPMDCPSALHQLMLDCWQKDRNHRPKFGQIVNTLDKMIRNPNSLKAMAPLSS	soluble
MSLKQTNPFVYSNDNKRYHTWNYCLREEFGQKTYKVALDGGFDCPNRDGTVAHGGCTFCSAAGSGDFAGNRALDLKIQFQQVRDKMQTKWKDGKCIAYFQAFTNTHAPVAELREKFETVLNEPGVVGLSIATRPDCLPDDVVEYLAELNERTYLWLELGLQSAHDETGRLINRAHDYDCYVEGVRKLQKHNIRICTHIINGLPKETPEMMMETTRKVVESGVDGIKIHLLHLLKGTPMVEDYKKGDLEFLTRDGYVNLVADQLEILPPEMVIHRITGDGGVDDLIGPVWSLNKFEVLNAIDAELVRRDSWQGKLYQPVEVNAKEGHHHHHH	soluble
MESPIELAPDYYLENFFKLTHHAVTWYSDLLTEEEHAWLCSFDSLNKHAQCLLVRLYSRKGCWFRSDKLNYQEIPLIDAALAELGGQDFISLSPPLSHQEVAANLLTKPEISALYPELPKSLKKDALVERLSNTEFDRVEQLEFTIVRLNSAHMIDVLLTLFFANTHQDLSQFVLDDLGLHQFEQYQLSKVRRFFNSREQIDRLIELSQLANLYWQFDRKDKANLDLLIEAMPHPVHHPYVDRKREHMLNDIARDYERIDELETALSLFGQTQLTPSRERRARIYDKLNHDDLFSDIVTEMLHSPIDVSELEVAQKLEQRLKRKQGEKVPRVTKPTCMEYRVELDLSQQRVELASKAHFESLGWSVFYAENALLNALLGLTFWDAIFAPIEGAFINAYQHRPLDLYHSDFVAKRQALIDEAFAQLKLGNTQAILTKYDEKFGISNPFVQWSLIGKELLEQSLNTIPTRTLLELFKVQLSDLKLYRNGMPDLIAFRDNEFEWIEVKGPGDKLQDNQWRWIKEFSRLNVPFAVCYVTARKEDEKRVD	not soluble
MELSEPLENYLKEIYEIELLKGYARVSDLILAFNVSPGTVSKALEKLEKIGLIERDNKKIKLTAEGKKIAEKLIRAHRLSERLLTDIIGLDWIRAHQLAHRLEHIWPEDVVDKIDELLGKPLTCPHGHPIPGREVKVNGIKLSEAECNKKYKVIMIIREEEWILSMADELNIKPGVEIKLIKKNENDFVIEIDNKKESIPKALAEEVLVSE	soluble
MDLHLKNLFGRFQEQFGSGPGLGPGSGVCLMIVEGISSNIIQSIFRASASLYSSEPWKRLRPGHLFGVRVGKDSDWSGKRQPFQCVQFIGGDGGDIAIYMYRSMSYALKMTDGDSWEMARDPNVEVFRVTYELESLMLPSNKRMVKSLSLEVSGTDRFPIMDVARCMTSGELQFRSPTLEELRLVFAVMKALSLVHPLLLQEEKQVRGLPRMIKFSPFIETVDVQWPSEMGKGHDFVAVTVSHPPGQSYEQKREDDELEIVSGMTA	soluble
MRPLKISRDELLQRCAGTFRRYGYHGTTMEMLSSACGLTKASFYHHYPNKEALLRDVLEWTHQRLAETLFSIAYDPLLTPRERLEKLGRKAARLFQDDSIGCLMGVVAVDASYGRSELMAPIRSFLDDWAQAFAQLYRPAFDEAQALERGRQLVADFEGAILLARIYGEPGYIDGVTRRALEQLAG	not soluble
KNTPVDAIPDLSDVQVIIKTSYPGQAPQVVEDQVTYPLTTAMLAVPGAETVRGYSFFGDSYVYIIFNDDTDMYWARSRVLEYLSQVAPKLPPNAKPTLGPDATGVGWVYSYVLQDKTGQHDLAELRSLQDWFLKYELQTVDGVSEVATVGGMVKQYQVQIDPAKLRAYNLTLQQVNMAIQNGNQETGASVVEVAEAEHMVRTTGYLTSIEDIKSLPLKVTDKGTPLLLGDIADINLGPQMRRGISELNGEGEAVGGVIVMRYGENASEVISKVKDKLEDLQRSLPDGVEIVTTYDRSTLINAAVDNLWKKLAEEFIVVAIVCALFLFHIRSS	not soluble
MSTKTMKEKAVELLQKCEVVTLASVNKEGYPRPVPMSKIAAEGISTIWMSTGADSLKTIDFLSNPKAGLCFQEKGDSVALMGEVEVVTDEKLKQELWQDWFIEHFPGGPTDPGYVLLKFTANHATYWIEGTFIHKKLD	soluble
MREKLTVIKVGGKIVEEEATLLQLLNDFAAISGHKVLVHGGGRSATKIAAQLGIESKMVNGRRITDAETLKVVTMVYGGLVNKNIVAGLQARGVNALGLTGADMNVIRSVKRPVKEVDYGFVGDVEKVDASLLADLIHKGVVPVMAPLTHDGQGNMLNTNADTIAGETAKALSALFDVTLVYCFEKKGVLRDENDDDSVIPEITRAEFEQYVADGVIQGGMIPKLENSFEAINAGVTEVVITLASAIKDNEGTRIKK	not soluble
MAHHHHHHMEINISNITNSSNNKKERVNIHSHIKGLGVNTNIYLHENEISLSDEKYSMFFDNSCGLVGQFKAREASLFLVDLIKQKKLAGKCILLAGPSGSGKSALAIGISREINRKMPFVFLSGSEVYSNEIKKTEVILEAFRKSIHIKIKEEKLVYEGEVVDMVVEENECLYSLNKAKQINAIIITLKSVKGSKTLRLAPKIHEQIAREKIKIGDVIYIETNTGHVKRLGRCNDYAKEYDIEFDEYVSLPKGEVHKKKEVVQQISLHDIDLANANPTVGEDLASVLNSYLRPKKTEITEKLRVEINKTVNKFLESGLAEIIPGVLYIDEAHMLDIECFSYLNRAIESPLAPILIMATNRGICTVKGTDNIEPHGIPVDLLDRLIIIKTFPYTLKEIVQILALRAQTEKINITEEGMNYLAKIGIQSSLRFAMLLLEPSRILATLEGNTIIDIKHIEQADELFMDAKTSAHRVVDQSNKFVN	not soluble
